According to patent US20070243191A1, “ANTI-HYPERPROLIFERATIVE THERAPIES TARGETING HDGF” (THE BOARD OF REGENTS OF THE UNIVERSITY OF TEXAS SYSTEM, priority 2005, published 2007):

Legend:
[1] = tested on: tumor microvessels; assay: CD31 staining of microvessels in treated A549 xenograft tumors; format: in vivo, mouse
Description: In order to directly study the antiangiogenic action of anti-HDGF antibodies, the xenograph tumors treated with the various agents and presented in the foregoing example (see FIG. 8) were studied following CD31 staining. CD31 antibody staining is generally regarded as a convenient means of visualizing microvessels in order to assess angiogenesis and anti-angiogenic action. Each of the tumors treated as described with respect to FIG. 8 were subjected to CD31 staining.

[2] = tested on: A549 xenograft; assay: A549 xenograft model, H3 in combination with gemcitabine and Avastin; format: in vivo, mouse; details: single agents and combinations
Procedure: To determine potential synergistic effects of combining the antibodies with other cancer therapeutic agents, the H3 antibody was tested in combination with gemcitabine, a commonly used chemotherapeutic agent, and Avastin®, a FDA approved VEGF neutralizing monoclonal antibody, in the A549 xenograft model. At day 7 after tumor cell inoculation subcutaneously, the animals were randomized into one of the 8 groups: […] (6 mice), gemcitabine (5 mice), H3 (7 mice), Avastin® (5 mice), H3+gemcitabine (5 mice), 113+Avastin® (5 mice), Avastin®+gemcitabin (5 mice), and H3+ gemcitabine+Avastin® (7 mice). In this experiment, all the agents were given IP at day 7 and every 3 days thereafter for total 5 injections. H3 was given 250 μg per mouse/injection without boost at first injection; gemcitabine was given in a dose of 80 mg/kg/injection; and Avastin® was given 100 μg per mouse/injection.

[3] = biological target: T1, human hepatoma-derived growth factor (HDGF) (human, UniProt P51858 1-240); assay: sandwich ELISA, 40 ng C1 coated per well as capture antibody
T1 construct: In most assays the endogenous protein of human cancer cell lines or tissues (lysates for immunoprecipitation, denatured on Western blots); also called native HDGF; recombinant HDGF

[4] = tested on: A549 xenograft; assay: A549 xenograft model, individual monoclonal antibodies; format: in vivo, mouse; details: for average tumor weights: 500 μg boost then 250 μg every three days x4 i.p., day 22, PBS 784±458; for tumor growth inhibition vs PBS and M31 controls: A549 xenograft, individual antibodies
Description: To determine an anti-tumor effect of individual monoclonal antibodies, the CELLine™ system (BD Biosciences) was used to generate the amount of antibodies for each clone sufficient for our animal experiments. In our second experiment, we tested four individual monoclonal antibodies (H3, C1, C4, and L5-9) and used PBS and M31, an IgG1 antibody without known antigen, as controls. Cell inoculation was similar to the experiment described above, 7 days after subcutaneous injection of A549 cells, the animals with established tumors were randomized into one of the 6 groups. Besides PBS group, which was given 200 μl PBS every IP injection, all the other groups were given a 500 μg of individual antibody as boost dose followed by 250 μg/injection every three days for four times. Tumor sizes were measured every three days. All the animals were sacrificed at day 22 after tumor cell inoculation.

[5] = biological target: T2, HDGF (Mus musculus, UniProt P51859, A118D); assay: Western blot of HDGF in putative MiaPaca-2 cells; format: binding; details: putative MiaPaca-2 line (murine HDGF)
T2 construct: endogenous in cells; host or cells: putative MiaPaca-2 cells, believed to be M109 murine lung adenocarcinoma
Procedure: (§1) The two antibodies were tested using what was believed at the time to be the MiaPaca-2 pancreatic cancer xenograft model. […] This observation led to the use of H3 in the initial combination experiment described above. To determine the expression of HDGF in the cell line, a Western blot analysis was performed using C1 and H3 antibodies. […] To determine HDGF expression levels in pancreatic cancers, 7 additional pancreatic cancer cell lines were analyzed. All the 7 cell lines expressed high-level HDGF recognizable by H3 antibody but not the putative “MiaPaca-2” line.
(§2) An immunoprecipitation assay was then performed using H3 antibody to determine whether the antibody recognizes the native HDGF in the cells, which is important to explain why the antibody had inhibited the tumor growth in the xenograft model. […] Because the protein migrated faster than the HDGF from NSCLC cell lines, the HDGF cDNA from “MiaPaca-2” cells was sequenced. […] The origin of the cell line was traced and is now believed to be M109, a murine lung adenocarcinoma cell line from a mouse spontaneous lung cancer.

[6] = tested on: L3.6 pancreatic cancer cells; assay: L3.6 pancreatic cancer xenograft model; format: in vivo; details: mice with tumors bigger than 500 mg, one week after treatment
Procedure: Anti-HDGF antibodies were tested for a therapeutic effect in a xenograft model using metastatic L3.6 pancreatic cancer cells. After 10 days of tumor cell inoculation, mice were randomly selected into either M31 control antibody treatment, H3 antibody treatment, or C1 antibody treatment. The sizes of the tumors were between 100-200 mg at the time of treatment except three which grown bigger than 500 mg and were assigned to each group. […] This phenomenon is similar to human clinical observations where some established primary lung cancers develop liquidized central part of the tumors after treatment with agents having anti-angiogenic activity such as sorafenib (BAY 43-9006). This is a hallmark feature of anti-angiogenic agents as a class.

[7] = Antibody distribution after intra-peritoneal injection in tumor-bearing nude mice; format: in vivo; details: for antibody localization in tumor tissue (anti-mouse IgG staining): tumor tissue sections of treated tumors
Procedure: To determine the distribution of the antibodies after intra-peritoneal injection in the animals, we injected fluoresce labeled M31 and H3 antibodies into nude mice and used a scanner to measure the antibody distribution 12 h after injection. […] To determine the antibody distribution in the tumor tissues and to compare the patterns of the distribution in the tumor tissues among the different antibodies, a specific anti-mouse IgG antibody was used to stain tumor tissue sections of tumors treated with different antibodies.

[8] = tested on: H460 xenograft; assay: H460 xenograft model; format: in vivo, mouse
[9] = biological target: native HDGF (Homo sapiens, UniProt P51858); assay: Binding to native HDGF (immunoprecipitation, clone selection)
Description: Thus, to develop a useful therapeutic that could affect tumor control, it was deemed important to develop high-affinity monoclonal antibodies that had the ability to bind native HDGF. An exemplary approach that was employed by the inventors involved, first, generating full-length recombinant HDGF in bacteria. This bacterially expressed recombinant HDGF was then used the immunize mice to generate mature B cells secreting antibodies specifically recognizing HDGF. After fusing the B cells with myeloma cells and several rounds of screening/selection steps, single clones secreting high-affinity IgGs capable to bind native HDGF were identified. […] Antibodies from these clones were selected and tested using IHC. Similar staining patterns were obtained in a panel of tumor samples among these antibodies and between these antibodies and the previously mentioned polyclonal antibodies, indicating these antibodies recognize HDGF. All of the four monoclonal antibodies are IgG1 and have been adapted to serum-free conditions for scale-up production.

[10] = tested on: "MiaPaca-2" line (M109); assay: Putative MiaPaca-2 (believed M109 murine lung adenocarcinoma) xenograft model; format: in vivo, mouse; details: putative MiaPaca-2 (murine M109) model, H3 compared with C1
Procedure: as §1, §2

[11] = biological target: T3, HDGF (Homo sapiens, UniProt P51858); assay: Immunoprecipitation of HDGF from H460 total cell lysates; format: binding; details: H460 NSCLC total cell lysates
T3 construct: The antibody sufficiently pulled down over 90% of the cellular HDGF; endogenous in cells; host or cells: H460 NSCLC cells (total cell lysate)
Procedure: In most studies, HDGF was found localized in nuclear compartment. […] One possibility of the lacking cytoplasmic staining is the common IHC conditions. Alternatively, the protein may be rapidly released from cells making the detection of protein in cytoplasm difficult. Taking advantage of the newly developed monoclonal antibodies, two sets of experiments were performed to determine the subcellular localization of HDGF and the secretion/releasing status of the protein. In one set of experiment, H3 was used for immunoprecipitation (IP) employing total cell lysates from H460 NSCLC cells. The antibody sufficiently pulled down over 90% of the cellular HDGF. Some potential HDGF binding proteins might have also co-precipitated with HDGF. We then extracted cytoplasmic proteins and nuclear proteins separately and performed IP as described above followed by 2-DE protein separation. Although the relative HDGF protein amount was higher in the nuclear than in the cytoplasm with equal amount of protein loading, HDGF was clearly presented in cytoplasm with distinct modification or homologues patterns between the two subcellular compartments. It should be noted that the total amount of cytoplasmic proteins is much higher than the nuclear proteins. Therefore, the absolute amount of HDGF in cytoplasm may actually be similar or even higher to that in nuclear.

[12] = biological target: T4, native HDGF (Mus musculus, UniProt P51859); assay: Immunoprecipitation of native HDGF from putative MiaPaca-2 cells; format: binding; details: putative MiaPaca-2 cells (murine HDGF)
T4 construct: endogenous in cells; host or cells: putative MiaPaca-2 cells, believed to be M109 murine lung adenocarcinoma
Procedure: as §2

T2 sequence (P51859 whole entry A118D): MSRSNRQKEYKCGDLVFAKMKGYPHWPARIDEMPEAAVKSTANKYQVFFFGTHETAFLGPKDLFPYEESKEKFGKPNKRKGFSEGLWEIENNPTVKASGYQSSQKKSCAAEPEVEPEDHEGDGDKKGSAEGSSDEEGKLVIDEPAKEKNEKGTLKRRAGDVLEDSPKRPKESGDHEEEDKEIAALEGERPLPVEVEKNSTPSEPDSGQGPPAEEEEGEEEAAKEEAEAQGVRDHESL
Sequence of native HDGF (Homo sapiens, UniProt P51858) (P51858 whole entry): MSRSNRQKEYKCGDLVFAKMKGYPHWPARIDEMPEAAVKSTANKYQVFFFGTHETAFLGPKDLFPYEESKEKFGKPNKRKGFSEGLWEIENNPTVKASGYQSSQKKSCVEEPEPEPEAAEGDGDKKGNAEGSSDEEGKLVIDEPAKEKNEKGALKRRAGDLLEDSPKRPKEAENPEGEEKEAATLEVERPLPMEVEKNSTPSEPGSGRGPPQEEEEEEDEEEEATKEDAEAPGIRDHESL
T4 sequence (P51859 whole entry): as the sequence (P51859 whole entry A118D) above, with D118A counted along it
T3 sequence (P51858 whole entry): as the sequence (P51858 whole entry) above
T1 sequence (P51858 whole entry): as above

Avastin®: FDA approved VEGF neutralizing monoclonal antibody [reference compound]
numbers of microvessels in the tumors [1]: substantially reduced numbers of microvessels
tumor growth inhibition [2]: best inhibition

Nc1ccn([C@@H]2O[C@H](CO)[C@@H](O)C2(F)F)c(=O)n1 [gemcitabine, reference compound]
size of the microvessels in the tumors [1]: further increase the size
tumor growth inhibition [2]: only modest tumor growth inhibition

B1: anti-HDGF monoclonal antibody C1 (antibody, V domains shown)
VH: EVQLVESGGRLVQPKGSLKLSCAASGFTFNTYAMYWIRQAPGKGLEWVARIRSKSYNYATYYADSVKDRFTISRDDSQSMLYLQMNNLKTADTAMYYCVSEGFWGQGTSVTVSS
VL: DVLMTQTPLSLPVSLGDQASISCRSSQSIVHSSGNTYLEWYLQKPGQSPKLLIYKVSNRFSGVPDRFSGSGSGTDFTLKISRVEAEDLGVYYCFQGSHVPWTFGGGTKLEIK
notes: also called HDGF C1-2f; C1 antibody
binding result [3]: binds

B2: C1: anti-HDGF IgG1 monoclonal antibody; heavy chain SEQ ID NO:32, light chain SEQ ID NO:34 (antibody, V domains shown)
VH: EVQLVESGGRLVQPKGSLKLSCAASGFTFNTYAMYWIRQAPGKGLEWVARIRSKSYNYATYYADSVKDRFTISRDDSQSMLYLQMNNLKTADTAMYYCVSEGFWGQGTSVTVSS
VL: DVLMTQTPLSLPVSLGDQASISCRSSQSIVHSSGNTYLEWYLQKPGQSPKLLIYKVSNRFSGVPDRFSGSGSGTDFTLKISRVEAEDLGVYYCFQGSHVPWTFGGGTKLEIK
modifications: C1 heavy chain aa; C1 light chain aa
average tumor weights [4]: 224±85
tumor growth inhibition vs PBS and M31 controls [4]: most significant tumor growth inhibition
detection of HDGF on Western blots [5]: did not detect HDGF
liquidized central part of tumor (hollow effect) [6]: developed liquidized central part
antibody localization in tumor tissue (anti-mouse IgG staining) [7]: entered into both cytoplasm and nuclear
tumor growth inhibition [8]: effective in inhibiting tumor growth
binding to native HDGF [9]: ability to immunoprecipitate HDGF

B3: H3: anti-HDGF IgG1 monoclonal antibody; heavy chain SEQ ID NO:36, light chain SEQ ID NO:38 (antibody, V domains shown)
VH: QITLKQSGPGIVQPSQPVRLTCTFSGFSLSTSGIGVAWIRQPSGKGLEWLATIWWDDDNRYNPSLKSRLAVSKDTSNNQAFLNIITVETADTAIYYCAQIYDYAVGFAYWGQGTLVTVSA
VL: DIQMTQTTSSLSASLGDRVTISCRASQDISNYLNWYQQKPDGTVKLLIYYTSRLHSGVPSRFSGSGSGTDYSLTISNLEPDDIATYYCQQYGKLWTFGGGTKLEIK
modifications: H3 heavy chain aa; H3 light chain aa
average tumor weights [4]: 266±22
tumor growth inhibition vs PBS and M31 controls [4]: most significant tumor growth inhibition
detection of HDGF on Western blots [5]: did not detect HDGF
tumor growth inhibition [10]: better tumor growth inhibition
numbers of microvessels in the tumors [1]: substantially reduced numbers of microvessels
size of the microvessels in the tumors [1]: stronger role in reducing the size
liquidized central part of tumor (hollow effect) [6]: developed liquidized central part
cellular HDGF pulled down by immunoprecipitation [11]: over 90%
binding to native HDGF of the tumor cells [12]: strongly bound
antibody distribution in the animals including tumors ([7]; fluorescence-labeled antibody, 12 h after i.p. injection, nude mice): evenly distributed
antibody localization in tumor tissue (anti-mouse IgG staining) [7]: entered into the cytoplasmic compartment of some tumor cells
tumor growth inhibition [8]: effective in inhibiting tumor growth
tumor growth inhibition [2]: best inhibition followed by H3
binding to native HDGF [9]: ability to immunoprecipitate HDGF
